The text below walks through data of patent US20180334496A1 (KODIAK SCIENCES, published 2018).

Residue numbers refer to the chain shown, from its start.

Assay [1] has as its target T1, recombinant cynomolgus CFD, His-tagged (cynomolgus).
T1 construct: also called rcyCFD-His; recombinant Cyno-CFD
In words: SPR MX96.

In assay [2] the target is T2, human Complement Factor D (CFD), purified from human serum (human, UniProt P00746 26-253).
T2 construct: serum purified (CompTech A136); also called serum purified CFD; hCFD-Comptech
In words: SPR MX96, mAbs amine-coupled, CFD injected.

T2 sequence (P00746 26-253): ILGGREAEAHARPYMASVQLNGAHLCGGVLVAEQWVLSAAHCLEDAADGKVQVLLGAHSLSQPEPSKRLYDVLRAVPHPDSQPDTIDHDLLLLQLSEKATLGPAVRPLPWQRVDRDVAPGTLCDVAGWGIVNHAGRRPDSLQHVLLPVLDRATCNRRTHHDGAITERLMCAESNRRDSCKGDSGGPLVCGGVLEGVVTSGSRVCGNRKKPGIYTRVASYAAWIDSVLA

B1: KCD216 (antibody, V domains shown)
VH: QVHLQQSGPELVKPGASVKISCKASGYTFIDYYINWVKQRPGQGLEWIGWIFPGSDSTYYNEKFKGKATLTVDKSSSTAYMLLSSLTSEDSAVYFCARYGYYGSSFYAMDYWGQGTSVTVSS
VL: DIQMTQSPASLSVSVGETVTITCRASENIYSNLAWYQQKQGKSPQLLVYAATNLADGVPSRFSGSGSGTQYSLKINSLQSEDFGSYYCQHFWGTPPTFGGGSKLEIK
The Kd is the concentration at which binding is half-saturated. As for B1, the Kd in assay [1] worked out at 13 nM.

B2: KCD015 (antibody, V domains shown)
VH: EVQLQQSGAELVKPGASVKLSCTASGFNIKDTYMHWVKQRPEQGLEWIGRIDPANGYTEYDPKFQGKATITADTSSNTAYLQLSSLTSEDSAAYYCTSAMEFWGQGTSVTVSS
VL: QIVLTQSPAILSASPGEKVTMTCSASSSVSYIYWYQQKPRSSPRLLIYDTSNLASGVPVRFSGSGSGTSYSLTISRMEAEDAATYYCQQWSSYPFTFGGGTKLEVK
In assay [2], B2 came in with a Kd of 6.23 nM.

B3: KCD048 (antibody, V domains shown)
VH: EVQLQQSGADLVKPGASVKLSCTASGFNIKATYMHWVRQRPEKGLEWIGRIDPANGHTIYDPQFQGKATITSDTSSNTAYLQLNSLTSEDTAVYYCAEAMDYWGQGTSVTVSS
VL: B2 VL with L11M, M21L, S26T, I32M, R40G, A82D, S92N, V105I
In assay [2], B3 showed a Kd of 1.87 nM.

B4: KCD006 (antibody, V domains shown)
VH: B2 VH with N28K, Q39E, Y57N, E59K, S91T, A93V, T97A, S98N, E101D, F102Y
VL: B2 VL with V3I, L11M, S26R, Y31N, I32M, R40G, F95W, V105I
As for B4, in assay [1], the Kd is 150 nM.

B5: KCD033 (antibody, V domains shown)
VH: EVQLQQSGPELVKPGASMKISCTASGYSFTGYTMTWVKQSHGKNLEWIGLINPYNGGTNYNQKFKGKATLTVDKSSSIAYMELLSLTSEDSAVYYCARRHYGSNWDYWGQGTTLTVSS
VL: DIKLTQSPSSIYTSLGERVTITCKASQDINTYLSWFQQRPGKSPKTLIYRADRLVDGVPSRVRGSGSGQDYSLTISSLEYEDMGIYYCLQYDEFPYTFGGGTKLEIK
For B5, the Kd in assay [2] was 10.9 nM.

B6: KCD036 (antibody, V domains shown)
VH: B5 VH with T23K, L70F, I78T, N104S
VL: B5 VL with I11M, T13A, R39K, D52N, V62F, R63S, D82E
The molecule B6 registered a Kd in assay [2] of 25.5 nM.

B7: KCD011 (antibody, V domains shown)
VH: EVKLVESGGGLVQPGGSLKLSCAASGFTFSSNTMSWVRQTPEKRLEWVAYITNGGGSTYYPDTVKGRFTISRDNARNTLYLQMSSLKSEDTAMYYCARHDYYTMDYWGQGTSVTVSS
VL: DIQMTQSPSSLSASLGGKVTITCKASQDINKYIAWYQHKPGKGPRLLIHYTSTLQPGIPSRFSGSGSGRDYSFSISNLEPEDIATYYCLQYDNLLYTFGGGTKLEIK
The molecule B7 came in with a Kd in assay [2] of 77.5 nM.

B8: KCD062 (antibody, V domains shown)
VH: EVKLVESGGGLVQPGGSLKLSCAASGFTFSTYIMSWVRQTPEKRLEWVAYITSGGSSTYYPDTVKGRFTISRDNAKSTLYLQMSSLKSEDTAMYYCARHAHFYAMDYWGQGTSVTVSS
VL: B7 VL
In turn, B8 returned a Kd in assay [2] of 24 nM.

B9: KCD064 (antibody, V domains shown)
VH: B8 VH with T31S, E46G, S56G, S77N, A100G, H101T, F102G
VL: B7 VL with K103E
Molecule B9 gave an equilibrium dissociation constant (Kd) in assay [2] of 20.3 nM.

B10: KCD063 (antibody, V domains shown)
VH: B8 VH with T28I, T31S, S53N, S56G, F68L, S77N, A97V, F102Y
VL: B7 VL with A34T
As to B10, in assay [2], binding was characterised by a dissociation constant (Kd) of 33.3 nM.

B11: KCD056 (antibody, V domains shown)
VH: B7 VH with L20V, S31T, N32Y, V64E, R76K, A97V, T103A
VL: B7 VL with K103T
Consider B11, for which the Kd in assay [2] was found to be 60.2 nM.

B12: KCD057 (antibody, V domains shown)
VH: EVKLVESGGGLVQPGGSLKLSCAASGFTFSNYIMSWVRQTPEKRLEWVAYITNGGGATYYPDTVKGQFTISRDNAKNTLYLQMSSLKSEDTAIYYCARHDFYALDFWGQGTSVTVSS
VL: B7 VL with Q90K
In assay [2], B12 displayed a dissociation constant (Kd) of 2.71 nM.

B13: KCD058 (antibody, V domains shown)
VH: B12 VH with G10D, N31R, Q39L, Y50F, A57N, Y60H, Q67R, K76N, F101Y, F106Y
VL: B7 VL
In the case of B13, the Kd in assay [2] is 9.91 nM.

B14: KCD001 (antibody, V domains shown)
VH: EVQLQQSGPELVKPGASVKISCKASDNSFTGYYMHWVKQSHGNILDWIGYIDPYNGVSSYNQKFKGKATLTVDKSSSTAYMEIRSLTSEDSAVYYCASYYGSSPYWYFDVWGTGTTVTVSS
VL: QIVLSQSPAILSASPGEKVTMTCRASSSVSYMHWYQQKPGSSPKPWIYATSNLASGVPARFSGSGSGTSHFLTISRLEAEDAATYFCQQWSSNPYTFGGGTKLEIK
In assay [2], B14 came in with a Kd of 0.225 nM.

B15: KCD111 (antibody, V domains shown)
VH: B14 VH with D26G, N27Y, G31D, T71S, K74Q, I83L, A97S, T116R
VL: B14 VL with A59T, H70Y, F71S, R76K, F86Y
As to B15, the Kd in assay [1] is 7.2 nM.

B16: KCD042 (antibody, V domains shown)
VH: EVQLQQSGAELVKPGASVRLSCTASGFNIKHTYIHWVSQRPEQGLEWIGKIDPANGNTKYDPKFQGKATITADTSSNTAYLQLSSLTSEDTAVYYCVNAMEYWGQGTSVTVSS
VL: QSVLTQSPAIMSASPGEKVTMTCSANSSVSDMYWFQQRPGSSPRLLIYDTSNLASGVPVRFSGSGSGTSYSLTISRMEAEDAATYYCQQWSTYPWTFGGGTKLEIK
For the molecule B16, in assay [2], binding was put at a Kd of 1.43 nM.

B17: KCD044 (antibody, V domains shown)
VH: B16 VH with I34M, Q43R, A79V, V97L
VL: B16 VL with F35Y
In assay [2], B17 returned a Kd of 2.62 nM.

B18: KCD005 (antibody, V domains shown)
VH: EVQLQQSGPELVKPGASVKISCKASGYTFTDHYMNWVKQSHGKSLEWIGDINPNNGGTSCNQKFKGKATLTVDKSSSTAYMELRSLTSGDSAVYYCTREGASFAFWGQGTLVTVSA
VL: DVLMTQTPLSLPVSLGDQASISCRSSQSIVHSNGDTYLEWYLQKPGQSPKLLIYKVSNRFSGVPDRFSGSGSGTDFTLKISRVEAEDLGVYYCFQGSHVPVTFGAGTKLELK
In turn, B18 returned a Kd in assay [2] of 1.39 nM.

B19: KCD009 (antibody, V domains shown)
VH: QIQLVQSGPELKKPGETVKISCKASGYIFRNYGMNWVKQGPGKGLKWMGWINTYTGEPTYADDFKGRFAFSLETSASTAYLQISNLKNEDTATYFCVRDGPGFAYWGQGTLVTVSA
VL: B18 VL with Q27L, S28I, V30E, N33D, D35N, E86D, K108N
On to B19, for which binding in assay [2] was put at a Kd of 5.57 nM.

B20: KCD232 (antibody, V domains shown)
VH: EVQLVESGGGLVQPKGSLKLSCAASGFSFNTYAMNWVRQAPGKGLEWVARIRSKSNNYATYYADSVKDRFTISRDDSESMVYLQMNNLKTEDTAMYYCVRHGYYWYFDVWGTGTTVTVSS
VL: B18 VL with N33D, D35N, K55R, V83M, V101Y, A105G, L111I
For B20, the Kd in assay [1] amounted to 5.5 nM.

B21: KCD124 (antibody, V domains shown)
VH: B18 VH with C60Y
VL: B18 VL with V101L
Molecule B21 had a Kd in assay [2] of 4.32 nM.

B22: KCD229 (antibody, V domains shown)
VH: B20 VH with S73F, V81L
VL: B18 VL with T7N, D35N, K50N, K55N, S57F, V101Y, A105S, L111I
With B22, the Kd in assay [1] stood at 1.6 nM.

B23: KCD010 (antibody, V domains shown)
VH: EVLLQQSGPELVKPGASVKIPCKASGYTFTDYDMDWVKQSHGKSLEWIGHINPNNGGTIYNQKFKGKATLTVDKSSSTAYMELRSLTSEDTAVYYCGTGDFAYWGHGTLVTVSA
VL: QIVLTQSPAIMSVSPGEKVTLTCSASSSVSSSYLYWYQKKPGSSPKLWIYSTSNLASGVPARFSGSGSGTSYSLTISSMEAEDAASYFCHQWSSYPPTFGAGTKLELK
In assay [2], B23 gave a Kd of 3.05 nM.

B24: KCD023 (antibody, V domains shown)
VH: B23 VH with D33N, M34I, H50D, T58I, I59N, F101Y, H106Q
VL: B23 VL with I10F, V13A, K39Q, A61G, S93T
In assay [2], B24 displayed a Kd of 5.29 nM.

B25: KCD077 (antibody, V domains shown)
VH: EVQLQQSGAELVRPGALVKLSCKASGFNIKDYYMHWVKQRPEQGLEWIGWIDPENGHTIYDPRFQGKATITADTSSNTAYLQLSSLTSEDTAVYYCSRGLLGFAYWGQGTLVTVSA
VL: DIVMTQSQKFMSTSVGDRVSVTCKASQNVGTNVAWYQQKPGQSPKALIYTASYRYSGVPDRFTGSGSGTDFTLTISNVQSEDLAEYFCQQYNSYPHMYTFGGGTKLEIK
Consider B25, for which the affinity in assay [2], expressed as Kd, was 16.9 nM.

B26: KCD022 (antibody, V domains shown)
VH: DVQLQESGPDLVKPSQSLSLTCTVTGYSITSGYSWHWIRQFPGNTLEWMGYIHYSGSTNYNPSLESRISFTRDTSKNQFFLQLNSVTTEDTATYYCALHFYGYNLGWYFDVWGAGTTVTVSS
VL: DIVMTQSHKFMSTSIGDRVIITCKASQDVGTTVAWYQQRPGQSPKLLIYWASTRHTAVPDRFTGSGSGTDFTLTISNVQSEDLADYFCQQYTSYPLTFGAGTQLELK
As to B26, the affinity in assay [2], expressed as Kd, was 56.8 nM.

B27: KCD102 (antibody, V domains shown)
VH: QVQLQQPGAELVRPGTSVKLSCKASGYTFTSYWMHWVKQRPGQGLEWIGVIDPSDSYTNYNQKFKGKATLTVDTSSSTAYMQLSSLTSEDSAVYYCARNGYDGSMDYWGQGTSVTVSS
VL: EIQMTQTTSSLSASLGDRVTISCRASQDISNYLNWYQQKPDGTVKLLIYYPSRLHSGVPSRFSGSGSGTDYSLTISNLEQEDFATYFCQQGNTLPYTFGGGTKLEIK
Regarding B27, binding in assay [2] was characterised by a dissociation constant (Kd) of 3.56 nM.
